Laboratory results taken from US6673902B2, “Cyclin D binding factor, and uses thereof” (St. Jude Children's Research Hospital, priority 1996, dated 2004).
Blank lines part the entries; values can stand above or below the molecule they belong to.

Tests used:
[1] = test system: 281 bp ARF promoter fragment; assay: Transactivation of ARF promoter-luciferase reporter in NIH-3T3 cells; type: cell-based, mouse; details: NIH-3T3, 281 bp ARF promoter fragment-luciferase
Protocol: Transactivation assays. NIH-3T3 cells were transfected with 4 μg of pGL2-ARFpro BamHI or its DMP1 binding site mutant, with or without increasing amount of pFLEX-DMP1, pEVRFO-Ets1, pCMV-Ets2, pRcRSV-Elfl, pdEB-Fli1, p(IEB-EWS-Fli1 or pCMV-E2F-1 (89-437), and 4 μg β-actin SEAP control vectors [Inoue and Sherr, Mol. Cell. Biol. 18: 1590-1600 (1998); Inoue et al., J. Biol. Chem. 273:29188-29194 (1998); Davis and Roussel, Gene 171:265-269 (1996); Baily et al., Mol. Cell. Biol. 14:3230-3241 (1994)]. Transfections and normalization of luciferase levels with internal control SEAP levels were performed as described [Inoue and Sherr, Mol. Cell. Biol. 18:1590-1600 (1998)].
Similarly, DMP1 deletion mutants defective in transactivation [Inoue and Sherr, Mol. Cell. […] Mutation of the DMP1 binding site within the ARF promoter [changing CCCGGATGC, (SEQ ID NO:33) to CCCGTCGAC, (SEQ ID NO:42)] also completely abolished transactivation by wild-type DMP1 (FIG. 14C, mutant reporter). Therefore, sequences within the −189 to −181 ARF promoter segment were the only ones responsible for DMP1-mediated transactivation. Although Ets1 could bind to a 23 base pair oligonucleotide containing the DMP1 consensus site (FIG. 14B), several Ets proteins were unable to induce significant reporter gene expression from the more complex 281 base pair ARF promoter (FIG. 14C). […]

D-type cyclins = biological target: T1, D-type cyclins (Mus musculus, UniProt P25322); assay: In vitro binding of [35S]methionine-labeled D-type cyclins to GST fusion proteins; details: cyclin D1
T1 construct: made in house; host or cells: in vitro transcription (Stratagene) and translation (rabbit reticulocyte system, Promega)
T1 sequence (P25322 whole entry, the tested form may be a part): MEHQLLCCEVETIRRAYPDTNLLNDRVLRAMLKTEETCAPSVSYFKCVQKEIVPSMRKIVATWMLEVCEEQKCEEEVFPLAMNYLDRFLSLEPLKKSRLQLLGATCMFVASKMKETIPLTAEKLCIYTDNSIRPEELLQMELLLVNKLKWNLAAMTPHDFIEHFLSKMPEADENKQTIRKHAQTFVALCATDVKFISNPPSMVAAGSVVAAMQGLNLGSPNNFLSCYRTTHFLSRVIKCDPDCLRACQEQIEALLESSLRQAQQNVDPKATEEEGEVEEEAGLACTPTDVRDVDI
Protocol: A BglII fragment encoding amino acids 176-761 of DMP1 (FIG. 1) is subcloned into the BamHI site of the pGEX-3X plasmid (Pharmacia, Uppsala Sweden), and overnight cultures of transformed bacteria are diluted 10-fold with fresh medium, cultured for 2-4 more hours at 37° C., and induced with 1 mM isopropyl-β-D-thiogalactopyranoside (IPTG) for 1 hour. Induced bacteria are lysed by sonication in phosphate-buffered saline (PBS) containing 1% Triton X-100, and recombinant glutathione-S-transferase (GST)-DMP1 protein is purified by absorption and elution from glutathione-Sepharose beads as described (35). […] After 2 hours at 4° C., the beads are collected by centrifugation, washed 4 times with IP Kinase buffer, and the bound proteins are denatured and analyzed by electrophoresis on 11% polyacrylamide gels containing sodium dodecyl sulfate (SDS) (1).
Because DMP1 interacted with cyclin D2 in yeast, the ability of a glutathione S-transferase (GST)-DMP1 fusion protein to bind D-type cyclins in vitro is examined. […] Bound cyclins recovered on washed glutathione-Sepharose beads are analyzed by electrophoresis on denaturing gels. […] GST-DMP1 is less efficient than GST-RB in binding cyclins D2 and D3 (˜4-fold less binding), and under these conditions, an interaction with D1 is not detected (lanes 3, 7, 11). […]

wild-type MEFs = assay: Apoptosis assay in wild-type MEFs deprived of serum; type: cell-based, mouse
Protocol: Apoptosis assays. Wild-type MEFs infected with the indicated retroviruses for 36 hours were starved for serum for 24 hours. Viability was determined by trypan blue dye exclusion, and DNA fragmentation was monitored by a terminal deoxynuclectidyl transferase (FACS-TUNEL) assay and by measurement of subdiploid DNA content of propidium iodide-stained nuclei [Zindy et al., Genes Dev. 12:2424-2433 (1998)].
On the other hand, MEFs overexpressing c-Myc, E2F-1, or E1A are exquisitely sensitive to apoptosis. […] 12:2424-2433 (1998); De Stanchina et al., Genes Dev. 12:2434-2442 (1998)].

p19ARF = assay: Induction of endogenous p19ARF protein in retrovirus-infected MEFs; type: cell-based, mouse; details: early passage MEFs, retroviral infection
Protocol: Virus production and infection. Human kidney 293T cells were transfected with a helper ecotropic retrovirus plasmid defective in psi-2 packaging sequences, together with pSRα vectors containing murine DMP1, human c-Myc, human E2F-1, or human Ets1 cDNAs [Zindy, et al., Genes Dev. 12:2424-2433 (1998); Inoue and Sherr, J. Biol. Chem. 273:29188-29194 (1998)]. Viruses were harvested every 6 hours 24-72 hours after transfection, filtered and stored at 4° C. until used for infection [Zindy, et al., Genes Dev. 12:2424-2433 (1998)]. In order to construct a retroviral vector containing DMP1 linked to a mutated tamoxifen-responsive element of the estrogen receptor (DMP1-ER™), a 3′ 0.3 kb EcoNI DNA fragment of murine DMP1 cDNA was amplified by PCR using
RNA and protein expression. Quantitative RT-PCRs employed specific primers for murine ARF exon 1β (30 cycles) and for β-actin (20 cycles) used as a control [Zindy et al., Oncogene 15:203-211 (1997)]. […]
Based on the above observations, it was determined as to whether introduction of DMP1 would induce synthesis of the endogenous ARF protein in normal diploid fibroblast strains. […] Although the blot was normalized for protein input, the levels of p19^ARF induced by DMP1 were calculated to be 2-fold higher than those induced by Myc, because fewer cells were productively infected with the DMP1 virus in this experiment (see FIG. 15A).

B1: Fli1: Ets family member (protein, UniProt P26323 1-452, looked up)
Friend leukemia integration 1 …: MDGTIKEALSVVSDDQSLFDSAYGAAAHLPKADMTASGSPDYGQPHKINPLPPQQEWINQPVRVNVKREYDHMNGSRESPVDCSVSKCNKLVGGGEANPMNYNSYMDEKNGPPPPNMTTNERRVIVPADPTLWTQEHVRQWLEWAIKEYGLMEIDTSFFQNMDGKELCKMNKEDFLRATSAYNTEVLLSHLSYLRESSLLAYNTTSHTDQSSRLNVKEDPSYDSVRRGAWNNNMNSGLNKSPLLGGSQTMGKNTEQRPQPDPYQILGPTSSRLANPGSGQIQLWQFLLELLSDSANASCITWEGTNGEFKMTDPDEVARRWGERKSKPNMNYDKLSRALRYYYDKNIMTKVHGKRYAYKFDFHGIAQALQPHPTETSMYKYPSDISYMPSYHAHQQKVNFVPSHPSSMPVTSSSFFGAASQYWTSPTAGIYPNPSVPRHPNTHVPSHLGSYY
ARF promoter reporter gene expression [1]: minimal activity

interaction with D1 (D-type cyclins): not detected
B2: GST-DMP1: GST fused to residues 176-761 of DMP1, bacterially synthesized (protein)
chain: GIKDATEIIFEMSKDERKDFYRTIAWGLNRPLFAVYRRVLRMYDDRNHVGKYTPEEIEKLKELRIKHGNDWATIGAALGRSASSVKDRCRLMKDTCNTGKWTEEEEKRLAEVVHELTSTEPGDIVTQGVSWAAVAERVGTRSEKQCRSKWLNYLNWKQSGGTEWTKEDEINLILRIAELDVADENDINWDLLAEGWSSVRSPQWLRSKWWTIKRQIANHKDVSFPVLIKGLKQLHENQKNNPVLLENKSGSGVPNSNCNSSVQHVQIRVARLEDNTAISPSPMAALQIPVQITHVSSTDSPAASADSETITLNSGTLQTFEILPSFPLQPTGTPGTYLLQTSSSQGLPLTLTTNPTLTLAAAAPASPEQIIVHALSPEHLLNTSDNVTVQCHTPRVIIQTVATEDITSSLSQEELTVDSDLHSSDFPEPPDALEADTFPDEIPRPKMTIQPSFNNAHVSKFSDQNSTELMNSVMVRTEEEIADTDLKQEEPPSDLASAYVTEDLESPTIVHQVHQTIDDETILIVPSPHGFIQASDVIDTESVLPLTTLTDPIFQHHQEASNIIGSSLGSPVSEDSKDVEDLVNCH
modifications: left off: a dimerising Fc or GST
notes: GST fused to residues 176-761 of DMP1, bacterially synthesized

B3: ARF: ARF tumor suppressor protein (protein)
chain: MGRRFLVTVRIQRAGRPLQERVFLVKFVRSRRPRTASCALAFVNMLLRLERILRRGPHRNPGPGDDDGQRSRSSSSAQLRCRFELRGPHYLLPPGARRSAGRLPGHAGGAARVRGSAGCARCLGSPAARLGPRAGTSRHRAIFAFRWVLFVFRWVVFVYRWERRPDRRA
apoptosis / cell death (wild-type MEFs): did not trigger apoptosis

B4: Myc: known rapid inducer of p19ARF protein expression used as positive control (protein, UniProt P01108 1-454, looked up)
Myc proto-oncogene protein: MDFLWALETPQTATTMPLNVNFTNRNYDLDYDSVQPYFICDEEENFYHQQQQSELQPPAPSEDIWKKFELLPTPPLSPSRRSGLCSPSYVAVATSFSPREDDDGGGGNFSTADQLEMMTELLGGDMVNQSFICDPDDETFIKNIIIQDCMWSGFSAAAKLVSEKLASYQAARKDSTSLSPARGHSVCSTSSLYLQDLTAAASECIDPSVVFPYPLNDSSSPKSCTSSDSTAFSPSSDSLLSSESSPRASPEPLVLHEETPPTTSSDSEEEQEDEEEIDVVSVEKRQTPAKRSESGSSPSRGHSKPPHSPLVLKRCHVSTHQHNYAAPPSTRKDYPAAKRAKLDSGRVLKQISNNRKCSSPRSSDTEENDKRRTHNVLERQRRNELKRSFFALRDQIPELENNEKAPKVVILKKATAYILSIQADEHKLTSEKDLLRKRREQLKHKLEQLRNSGA
apoptosis / cell death (wild-type MEFs): induced cell death | ARF protein synthesis (p19ARF): induced ARF protein synthesis
